Substitutions are numbered along the chain they refer to.

Here are results for two molecules from publication PMC9482650, “Quantitative fragmentomics allow affinity mapping of interactomes” (Nature Communications, 2022).

To fix the notation:
T1: APBA1_1, Q02410
T1 sequence (Q02410 651-752, limits assumed, looked up): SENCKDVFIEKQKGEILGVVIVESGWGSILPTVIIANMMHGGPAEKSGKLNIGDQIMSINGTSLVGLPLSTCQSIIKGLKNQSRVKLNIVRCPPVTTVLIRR

T2: APBA1_2, Q02410
T2 sequence (Q02410 742-832, limits assumed, looked up): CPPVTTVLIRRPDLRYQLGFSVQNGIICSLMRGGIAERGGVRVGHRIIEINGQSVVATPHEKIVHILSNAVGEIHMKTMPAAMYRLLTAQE

T3: APBA2_2, Q99767
T3 sequence (Q99767 654-744, limits assumed, looked up): T2 sequence (Q02410 742-832, limits assumed, looked up) with R10K, R15K, P59A, H65Q, I66A, A70S, Y84F, A89G

T4: ARHGEF11, O15085
T4 sequence (O15085 42-136, limits assumed, looked up): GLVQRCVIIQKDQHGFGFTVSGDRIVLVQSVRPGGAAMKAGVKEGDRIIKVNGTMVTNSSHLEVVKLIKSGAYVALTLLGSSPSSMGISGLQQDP

T5: DFNB31_1, Q9P202
T5 sequence (Q9P202 135-233, limits assumed, looked up): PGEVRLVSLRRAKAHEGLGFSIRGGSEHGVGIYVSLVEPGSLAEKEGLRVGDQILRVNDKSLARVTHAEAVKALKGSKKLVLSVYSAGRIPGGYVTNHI

T6: DLG3_3, Q92796
T6 sequence (Q92796 374-475, limits assumed, looked up): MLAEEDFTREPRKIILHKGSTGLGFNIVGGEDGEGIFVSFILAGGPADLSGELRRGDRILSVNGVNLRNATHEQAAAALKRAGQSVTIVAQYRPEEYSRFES

T7: GRIP1_2, Q9Y3R0
T7 sequence (Q9Y3R0 145-248, limits assumed, looked up): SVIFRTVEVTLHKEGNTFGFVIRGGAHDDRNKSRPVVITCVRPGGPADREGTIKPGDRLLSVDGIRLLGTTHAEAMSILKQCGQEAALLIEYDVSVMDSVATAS

T8: GRIP1_3, Q9Y3R0
T8 sequence (Q9Y3R0 247-346, limits assumed, looked up): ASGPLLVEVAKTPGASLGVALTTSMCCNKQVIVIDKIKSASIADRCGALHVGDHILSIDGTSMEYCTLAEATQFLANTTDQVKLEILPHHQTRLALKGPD

T9: GRIP1_4, Q9Y3R0
T9 sequence (Q9Y3R0 467-571, limits assumed, looked up): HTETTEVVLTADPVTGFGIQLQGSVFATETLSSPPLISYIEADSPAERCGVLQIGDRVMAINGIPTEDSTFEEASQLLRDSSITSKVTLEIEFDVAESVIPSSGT

T10: HTRA4, P83105
T10 sequence (P83105 378-476, limits assumed, looked up): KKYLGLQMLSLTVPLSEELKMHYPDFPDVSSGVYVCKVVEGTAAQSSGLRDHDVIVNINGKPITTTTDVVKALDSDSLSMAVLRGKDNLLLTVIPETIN

T11: MPP6, Q9NZW5
T11 sequence (Q9NZW5 125-219, limits assumed, looked up): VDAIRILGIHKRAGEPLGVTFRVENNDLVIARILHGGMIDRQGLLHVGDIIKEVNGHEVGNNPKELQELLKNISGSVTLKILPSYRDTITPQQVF

T12: MPP7, Q5T2T1
T12 sequence (Q5T2T1 134-230, limits assumed, looked up): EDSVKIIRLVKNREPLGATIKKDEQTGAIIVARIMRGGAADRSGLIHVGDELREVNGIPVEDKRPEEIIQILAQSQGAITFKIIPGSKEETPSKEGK

T13: PDZD7_3, Q9H5P4
T13 sequence (Q9H5P4 857-944, limits assumed, looked up): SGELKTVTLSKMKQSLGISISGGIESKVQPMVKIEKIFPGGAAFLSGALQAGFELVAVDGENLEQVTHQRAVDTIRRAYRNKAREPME

T14: SNTG2, Q9NY99
T14 sequence (Q9NY99 68-166, limits assumed, looked up): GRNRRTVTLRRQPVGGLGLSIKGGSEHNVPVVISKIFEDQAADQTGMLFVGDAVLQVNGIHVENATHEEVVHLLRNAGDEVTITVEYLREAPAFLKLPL

B1: FOXI1, Q12951 (peptide)
chain: VLYPREGTEV
B2: EPHA6, Q9UF33 (peptide)
chain: MHIQEKGFHV

GRID2IP_2, A4D2P6, sequence (A4D2P6 272-370): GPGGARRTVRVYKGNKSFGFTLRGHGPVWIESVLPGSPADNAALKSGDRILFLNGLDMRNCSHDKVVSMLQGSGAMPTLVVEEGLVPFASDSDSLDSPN

The first assay concerns the target T1, APBA1_1, Q02410. Put plainly: holdup assay. Also on record: key: below the threshold = too weak to quantify, mostly under pKd 3.1 to 4. The conditions noted are these: plain residues with an end cap or a label only (N-terminal biotin on a linker: ado-ado).
Usually pKd stands for the Kd on a negative log10 scale, so that one unit is a factor of ten. With B1, the pKd entry is “below the threshold”.

In the case of B2, the negative-log Kd (pKd) entry is “below the threshold”.

For the next assay, the target named is T2, APBA1_2, Q02410. Description: holdup assay. On the set-up: key: below the threshold = too weak to quantify, mostly under pKd 3.1 to 4. The note with it: plain residues with an end cap or a label only (N-terminal biotin on a linker: ado-ado).
For B1, the pKd amounted to 4.51.

Regarding B2, the pKd entry was “below the threshold”.

A further assay has as its target T3, APBA2_2, Q99767. Description: holdup assay. On the set-up: key: below the threshold = too weak to quantify, mostly under pKd 3.1 to 4. The conditions noted are these: plain residues with an end cap or a label only (N-terminal biotin on a linker: ado-ado).
On to B1, for which the negative logarithm of the Kd (pKd) result is “below the threshold”.

Regarding B2, the negative logarithm of the Kd (pKd) entry is “below the threshold”.

In another assay the target is T4, ARHGEF11, O15085. Put plainly: holdup assay. On the set-up: key: below the threshold = too weak to quantify, mostly under pKd 3.1 to 4. The conditions noted are these: plain residues with an end cap or a label only (N-terminal biotin on a linker: ado-ado).
Take B1: the negative-log Kd (pKd) stood at 4.54.

For the molecule B2, the negative logarithm of the Kd (pKd) result is recorded as “below the threshold”.

A further assay has as its target T5, DFNB31_1, Q9P202. Description: holdup assay. On the set-up: key: below the threshold = too weak to quantify, mostly under pKd 3.1 to 4. The conditions noted are these: plain residues with an end cap or a label only (N-terminal biotin on a linker: ado-ado).
B1 yielded a pKd of 3.8.

For the molecule B2, the pKd result is listed as “below the threshold”.

The next assay addresses DLG2_3, Q15700. Put plainly: holdup assay. On the set-up: key: below the threshold = too weak to quantify, mostly under pKd 3.1 to 4. The conditions noted are these: plain residues with an end cap or a label only (N-terminal biotin on a linker: ado-ado).
As for B1, the pKd was 3.9.

Consider B2, for which the pKd entry was “below the threshold”.

For the next assay, the target named is T6, DLG3_3, Q92796. Put plainly: holdup assay. On the set-up: key: below the threshold = too weak to quantify, mostly under pKd 3.1 to 4. The note with it: plain residues with an end cap or a label only (N-terminal biotin on a linker: ado-ado).
B1 returned a negative-log Kd (pKd) of 3.8.

With B2, the negative logarithm of the Kd (pKd) result is “below the threshold”.

The target in a further assay is DLG5_1, Q8TDM6. Put plainly: holdup assay. Also on record: key: below the threshold = too weak to quantify, mostly under pKd 3.1 to 4. The note with it: plain residues with an end cap or a label only (N-terminal biotin on a linker: ado-ado).
DLG5_1, Q8TDM6, sequence (Q8TDM6 617-713): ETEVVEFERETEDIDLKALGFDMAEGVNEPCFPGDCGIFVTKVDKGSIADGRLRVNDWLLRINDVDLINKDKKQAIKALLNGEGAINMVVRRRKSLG
Consider B1, for which the pKd result is reported as “below the threshold”.

As for B2, the negative-log Kd (pKd) result is listed as “below the threshold”.

A further assay has as its target GRID2IP_2, A4D2P6. Description: holdup assay. Also on record: key: below the threshold = too weak to quantify, mostly under pKd 3.1 to 4. The note with it: plain residues with an end cap or a label only (N-terminal biotin on a linker: ado-ado).
B1 had a pKd of 4.11.

For the molecule B2, the pKd result is listed as “below the threshold”.

The target of another assay is T7, GRIP1_2, Q9Y3R0. Description: holdup assay. On the set-up: key: below the threshold = too weak to quantify, mostly under pKd 3.1 to 4. The note with it: plain residues with an end cap or a label only (N-terminal biotin on a linker: ado-ado).
For B1, the pKd entry is recorded as “below the threshold”.

B2: the pKd result is “below the threshold”.

The target of a further assay is T8, GRIP1_3, Q9Y3R0. Description: holdup assay. On the set-up: key: below the threshold = too weak to quantify, mostly under pKd 3.1 to 4. The conditions noted are these: plain residues with an end cap or a label only (N-terminal biotin on a linker: ado-ado).
For B1, the pKd entry is reported as “below the threshold”.

For B2, the pKd entry is “below the threshold”.

The target in another assay is T9, GRIP1_4, Q9Y3R0. Put plainly: holdup assay. Also on record: key: below the threshold = too weak to quantify, mostly under pKd 3.1 to 4. The note with it: plain residues with an end cap or a label only (N-terminal biotin on a linker: ado-ado).
On to B1, for which the negative logarithm of the Kd (pKd) result is on record as “below the threshold”.

Consider B2, for which the negative logarithm of the Kd (pKd) result is reported as “below the threshold”.

The target in the next assay is GRIP2_5, Q9C0E4. Description: holdup assay. On the set-up: key: below the threshold = too weak to quantify, mostly under pKd 3.1 to 4. The conditions noted are these: plain residues with an end cap or a label only (N-terminal biotin on a linker: ado-ado).
GRIP2_5, Q9C0E4, sequence (Q9C0E4 544-642): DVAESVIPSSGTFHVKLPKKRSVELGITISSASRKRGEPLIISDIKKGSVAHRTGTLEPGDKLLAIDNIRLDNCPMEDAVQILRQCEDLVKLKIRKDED
Regarding B1, the pKd result is recorded as “below the threshold”.

As for B2, the pKd result is listed as “below the threshold”.

The target of the next assay is T10, HTRA4, P83105. Description: holdup assay. On the set-up: key: below the threshold = too weak to quantify, mostly under pKd 3.1 to 4. The note with it: plain residues with an end cap or a label only (N-terminal biotin on a linker: ado-ado).
The molecule B1 returned a pKd of 4.29.

Consider B2, for which the pKd came out at 3.49.

The target in another assay is IL16_1, Q14005. Put plainly: holdup assay. On the set-up: key: below the threshold = too weak to quantify, mostly under pKd 3.1 to 4. The conditions noted are these: plain residues with an end cap or a label only (N-terminal biotin on a linker: ado-ado).
IL16_1, Q14005, sequence (Q14005 210-306): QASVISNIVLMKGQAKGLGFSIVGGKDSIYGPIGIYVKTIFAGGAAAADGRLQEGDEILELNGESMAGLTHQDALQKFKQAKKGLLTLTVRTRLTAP
In turn, B1 registered a pKd of 4.

For B2, the negative logarithm of the Kd (pKd) result was “below the threshold”.

In a further assay the target is IL16_3, Q14005. Put plainly: holdup assay. On the set-up: key: below the threshold = too weak to quantify, mostly under pKd 3.1 to 4. The conditions noted are these: plain residues with an end cap or a label only (N-terminal biotin on a linker: ado-ado).
IL16_3, Q14005, sequence (Q14005 1107-1207): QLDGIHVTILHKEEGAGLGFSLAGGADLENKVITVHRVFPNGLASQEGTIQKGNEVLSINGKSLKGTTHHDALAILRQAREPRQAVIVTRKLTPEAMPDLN
In the case of B1, the negative-log Kd (pKd) result was “below the threshold”.

As to B2, the negative logarithm of the Kd (pKd) result is reported as “below the threshold”.

In a further assay the target is Inadl_4, Q8NI35. Put plainly: holdup assay. The conditions noted are these: plain residues with an end cap or a label only (N-terminal biotin on a linker: ado-ado). Also on record: key: below the threshold = too weak to quantify, mostly under pKd 3.1 to 4.
Inadl_4, Q8NI35, sequence (Q8NI35 547-651): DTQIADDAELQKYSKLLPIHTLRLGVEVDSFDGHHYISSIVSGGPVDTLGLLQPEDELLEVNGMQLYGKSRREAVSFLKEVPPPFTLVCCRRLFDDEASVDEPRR
In the case of B1, the pKd entry was “below the threshold”.

Consider B2, for which the pKd result is recorded as “below the threshold”.

In a further assay the target is MAST1, Q9Y2H9. Put plainly: holdup assay. Also on record: key: below the threshold = too weak to quantify, mostly under pKd 3.1 to 4. The note with it: plain residues with an end cap or a label only (N-terminal biotin on a linker: ado-ado).
MAST1, Q9Y2H9, sequence (Q9Y2H9 962-1065): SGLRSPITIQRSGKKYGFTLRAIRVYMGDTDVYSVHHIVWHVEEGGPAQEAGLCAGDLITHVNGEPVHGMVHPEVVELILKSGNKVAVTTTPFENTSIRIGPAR
B1 yielded a pKd of 4.74.

B2 came in with a pKd of 3.69.

A further assay concerns the target T11, MPP6, Q9NZW5. Description: holdup assay. The conditions noted are these: plain residues with an end cap or a label only (N-terminal biotin on a linker: ado-ado). On the set-up: key: below the threshold = too weak to quantify, mostly under pKd 3.1 to 4.
On to B1, for which the pKd entry is given as “below the threshold”.

For the molecule B2, the negative logarithm of the Kd (pKd) entry is recorded as “below the threshold”.

In a further assay the target is T12, MPP7, Q5T2T1. Put plainly: holdup assay. The note with it: plain residues with an end cap or a label only (N-terminal biotin on a linker: ado-ado). On the set-up: key: below the threshold = too weak to quantify, mostly under pKd 3.1 to 4.
For B1, the pKd result is listed as “below the threshold”.

Regarding B2, the pKd entry is “below the threshold”.

The target of another assay is NHERF2_2, Q15599. Description: holdup assay. Also on record: key: below the threshold = too weak to quantify, mostly under pKd 3.1 to 4. The note with it: plain residues with an end cap or a label only (N-terminal biotin on a linker: ado-ado).
NHERF2_2, Q15599, sequence (Q15599 142-238): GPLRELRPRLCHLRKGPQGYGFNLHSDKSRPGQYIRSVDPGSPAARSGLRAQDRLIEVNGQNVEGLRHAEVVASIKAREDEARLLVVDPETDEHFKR
Molecule B1 yielded a negative-log Kd (pKd) of 3.48.

Regarding B2, the pKd result is recorded as “below the threshold”.

In a further assay the target is PARD3_3, Q8TEW0. Put plainly: holdup assay. The conditions noted are these: plain residues with an end cap or a label only (N-terminal biotin on a linker: ado-ado). On the set-up: key: below the threshold = too weak to quantify, mostly under pKd 3.1 to 4.
PARD3_3, Q8TEW0, sequence (Q8TEW0 582-685): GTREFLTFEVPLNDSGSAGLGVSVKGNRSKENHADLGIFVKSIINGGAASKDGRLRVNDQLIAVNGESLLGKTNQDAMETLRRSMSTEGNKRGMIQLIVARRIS
B1: the negative logarithm of the Kd (pKd) entry is given as “below the threshold”.

Turning to B2, the negative-log Kd (pKd) result is “below the threshold”.

The target in the next assay is T13, PDZD7_3, Q9H5P4. Description: holdup assay. On the set-up: key: below the threshold = too weak to quantify, mostly under pKd 3.1 to 4. The note with it: plain residues with an end cap or a label only (N-terminal biotin on a linker: ado-ado).
Turning to B1, the pKd worked out at 3.99.

For B2, the pKd result is “below the threshold”.

Another assay has as its target T14, SNTG2, Q9NY99. Description: holdup assay. On the set-up: key: below the threshold = too weak to quantify, mostly under pKd 3.1 to 4. The conditions noted are these: plain residues with an end cap or a label only (N-terminal biotin on a linker: ado-ado).
As for B1, the pKd is 3.6.

As to B2, the pKd result is reported as “below the threshold”.
